Measured values reported in paper PMC5727130.
Several values for one entry are separate records, joined by “and”; a condition that tells them apart may be missing. Equal values may be shown once. Values belong to the substance of their own block, whether it stands above or below them.

What was measured:
[1] = molecular target: His6-NT*-thrombin cleavage site-Bri2 BRICHOS fusion protein (human) (UniProt Q9Y287); assay: SEC; Ni-NTA-purified NT*-Bri2 BRICHOS fusion protein resolved on Superdex columns (Supplementary Fig. 1)
[2] = molecular target: human Bri2 BRICHOS (residues 113–231) tagged C-terminally with AU1, secreted from HEK293 cells (human) (UniProt Q9Y287); assay: immunoprecipitation and Western blot after non-reducing SDS-PAGE; culture medium of HEK293 cells transfected with Bri2 BRICHOS; reducing against non-reducing conditions
[3] = molecular target: human Bri2 BRICHOS (residues 113–231) tagged C-terminally with AU1, secreted from HEK293 cells (human) (UniProt Q9Y287); assay: Western blot after non-reducing SDS-PAGE; lysates of HEK293 cells transfected with Bri2 BRICHOS-AU1, anti-AU1 blot (Supplementary Fig. 9a)
[4] = molecular target: recombinant human Bri2 BRICHOS domain (residues 113–231 of full-length human Bri2) (human) (UniProt Q9Y287); assay: SDS-PAGE under non-reducing and reducing conditions; monomeric rh Bri2 BRICHOS (26.8 µM) incubated at 37 °C overnight in 20 mM phosphate pH 8.0, 0.2 mM EDTA, 0.02% NaN3
[5] = molecular target: recombinant human Bri2 BRICHOS domain (residues 113–231 of full-length human Bri2) (human) (UniProt Q9Y287); assay: SEC; rh Bri2 BRICHOS cleaved from isolated fusion-protein monomers; Superdex 200 PG
[6] = molecular target: recombinant human Bri2 BRICHOS domain (residues 113–231 of full-length human Bri2) (human) (UniProt Q9Y287); assay: negative-stain TEM single-particle 3D reconstruction; oligomers isolated on Superose 6 GL in 20 mM ammonium acetate pH 8.0, 2% uranyl acetate stain, D2 symmetry applied; number of subunits from the volume of the map against that of a monomer model
[7] = molecular target: recombinant human Bri2 BRICHOS domain (residues 113–231 of full-length human Bri2) (human) (UniProt Q9Y287); assay: Western blot after non-reducing SDS-PAGE; rh Bri2 BRICHOS monomer (5 µM) incubated at 37 °C in 80% (v/v) mouse serum, samples at different time points, goat anti-Bri2 BRICHOS blot
[8] = molecular target: recombinant human Bri2 BRICHOS domain (residues 113–231 of full-length human Bri2) (human) (UniProt Q9Y287); assay: SEC; rh Bri2 BRICHOS cleaved from isolated fusion-protein dimers; Superdex 200 PG

- stoichiometry N [1]: 2
Substance: His6-NT*-thrombin cleavage site-Bri2 BRICHOS fusion protein (from UniProt Q9Y287 113-231) (domain or fragment)

- stoichiometry N [2]: 2 and 4
- stoichiometry N [3]: 2 and 4
Substance: human Bri2 BRICHOS (residues 113–231) tagged C-terminally with AU1, secreted from HEK293 cells (from UniProt Q9Y287 113-231) (domain or fragment)

- stoichiometry N [4]: 2
- stoichiometry N [5]: 2
- stoichiometry N [6]: 24
- stoichiometry N [7]: 2 and 4 and 6
- stoichiometry N [8]: 2 and 4
Substance: recombinant human Bri2 BRICHOS domain (residues 113–231 of full-length human Bri2) (from UniProt Q9Y287 113-231) (domain or fragment)
